From patent US20250320281A1 come the findings set out here.

Test [1] has as its target JR-FL gp120 ΔV1/ΔV2 (HIV-1). In words: ELISA, antigen-coated wells. For orientation: An ELISA detects its analyte on a solid surface through an enzyme-linked reagent.
Test [2] deals with HIV-1 Env of isolate MGRM-AG-003 (HIV-1). In words: cell-based or functional assay.
Test [3] concerns the target HIV-1 Env of isolate MGRM-AG-009 (HIV-1). In words: cell-based or functional assay.
Test [4] concerns the target HIV-1 Env of isolate 92BR020 (subtype B pseudovirus) (HIV-1). In words: cell-based or functional assay.
The target in test [5] is HIV-1 Env of isolate 93MW959 (HIV-1). In words: cell-based or functional assay.
For test [6], the target named is HIV-1 Env of isolate MGRM-AG-006 (HIV-1). In words: cell-based or functional assay.
For test [7], the target named is HIV-1 Env of isolate MGRM-AG-008 (HIV-1). In words: cell-based or functional assay.
In test [8] the target is HIV-1 Env of isolate MGRM-AG-005 (HIV-1). In words: cell-based or functional assay.
The target of test [9] is HIV-1 92TH021 envelope glycoprotein (Env) on pseudovirus (HIV-1). In words: cell-based or functional assay.
For test [10], the target named is HIV-1 Env of isolate 92UG005 (pseudovirus) (HIV-1). In words: cell-based or functional assay.
The target of test [11] is HIV-1 Env of isolate MGRM-AG-001 (HIV-1). In words: cell-based or functional assay.
Test [12] concerns the target HIV-1 Env of isolate 93IN905 (pseudovirus) (HIV-1). In words: cell-based or functional assay.

Bounds are passed on as bounds.

Sequence of 5329_C19 (PGT-136) (antibody) (VH): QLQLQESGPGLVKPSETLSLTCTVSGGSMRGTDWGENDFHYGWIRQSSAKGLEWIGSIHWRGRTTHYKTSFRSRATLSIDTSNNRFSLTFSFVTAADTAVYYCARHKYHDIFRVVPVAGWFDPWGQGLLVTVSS
Sequence of 5329_C19 (PGT-136) (antibody) (VL): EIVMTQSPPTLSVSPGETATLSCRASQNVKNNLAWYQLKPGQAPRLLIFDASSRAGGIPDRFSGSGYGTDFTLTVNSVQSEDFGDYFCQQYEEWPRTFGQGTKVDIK
Sequence of 5345_I01 (PGT-137) (antibody) (VH): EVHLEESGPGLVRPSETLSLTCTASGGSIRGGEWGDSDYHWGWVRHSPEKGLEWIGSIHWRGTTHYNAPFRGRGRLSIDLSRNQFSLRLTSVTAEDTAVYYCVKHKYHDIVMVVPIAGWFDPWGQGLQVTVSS
Sequence of 5345_I01 (PGT-137) (antibody) (VL): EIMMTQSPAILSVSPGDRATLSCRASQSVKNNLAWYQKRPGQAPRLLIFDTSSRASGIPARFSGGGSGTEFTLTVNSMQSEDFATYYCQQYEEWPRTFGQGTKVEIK

Consider 4858_P08 (PGT-123) (antibody), for which the EC50 (commonly the concentration giving half of the maximal effect) in [1] is 0.3 µg/mL. For the same substance, the IC50 (as a rule, the concentration that inhibits the measured activity by half) was more than 50 µg/mL in test [2]; 0.073 µg/mL in test [3]; 0.014 µg/mL in [6]; 19.2 µg/mL in [7]; 0.149 µg/mL in [8]; 2.51 µg/mL in test [11]. In test [4], this substance yielded an IC50 (µg/mL), pseudovirus neutralization of 0.008 µg/mL. Also, the neutralization IC50 was 0.011 µg/mL in [5] and more than 10 µg/mL in test [9]. This substance also gave a neutralization IC80 in test [9] of more than 10 µg/mL. For the same substance, in test [9], the neutralization IC90 was more than 10 µg/mL. The substance further returned a neutralization IC95 in [9] of more than 10 µg/mL. This substance also had an IC50, pseudovirus neutralization in test [10] of 9.79 µg/mL.

On to 5145_B14 (PGT-127) (antibody), for which the EC50 in test [1] stood at 0.7 µg/mL. The IC50 in test [2] was more than 50 µg/mL; in [3], 0.059 µg/mL; in test [6], 0.021 µg/mL; in [7], more than 50 µg/mL; in test [8], more than 50 µg/mL; in test [11], more than 50 µg/mL. In test [4], this substance gave an IC50 (µg/mL), pseudovirus neutralization of 0.059 µg/mL. The substance also showed a neutralization IC50 in test [5] of 6.95 µg/mL. In test [10], this substance had an IC50, pseudovirus neutralization of 1.11 µg/mL.

In the case of 5123_A06 (PGT-125) (antibody), the EC50 in [1] came to 0.6 µg/mL. Besides, the IC50 is more than 50 µg/mL in [2]; 0.026 µg/mL in [3]; 0.008 µg/mL in test [6]; more than 50 µg/mL in [7]; more than 50 µg/mL in test [8]; more than 50 µg/mL in test [11]. The substance further displayed an IC50 (µg/mL), pseudovirus neutralization in test [4] of 0.016 µg/mL. Moreover, in test [5], the neutralization IC50 was 37.5 µg/mL. The IC50, pseudovirus neutralization in [10] is more than 50 µg/mL.

Substance 5141_B17 (PGT-126) (antibody) came in with an EC50 in [1] of 0.3 µg/mL. The IC50 in test [2] is more than 50 µg/mL; in [3], 0.03 µg/mL; in test [6] it was 0.01 µg/mL; in test [7], more than 50 µg/mL; in test [8], 1.21 µg/mL; in test [11], more than 50 µg/mL. Also, the IC50 (µg/mL), pseudovirus neutralization in [4] was determined as 0.015 µg/mL. Besides, the neutralization IC50 in test [5] amounted to 9.44 µg/mL. The results for the IC50, pseudovirus neutralization in test [9] and in test [10] were 0.115 µg/mL and 0.037 µg/mL, respectively. This substance also registered an IC80 (pseudovirus neutralization) in test [9] of 1.62 µg/mL. The substance further had an IC90 (pseudovirus neutralization) in test [9] of 6.91 µg/mL. In test [9], this substance displayed an IC95 (pseudovirus neutralization) of more than 10 µg/mL.

Consider 5343_B08 (PGT-135) (antibody), for which the EC50 in test [1] stood at 0.1 µg/mL. In addition, the Primary Neutralization Index (B cell culture supernatant) in [12] came out at 43.

5345_I01 (PGT-137) (antibody): the EC50 in test [1] turned out to be 0.2 µg/mL. For the same substance, in test [12], the Primary Neutralization Index (B cell culture supernatant) came to 3.3.

In test [1], 4877_D15 (PGT-122) (antibody) yielded an EC50 of 0.3 µg/mL. The IC50 was 43.7 µg/mL in test [2]; 0.128 µg/mL in [3]; 0.028 µg/mL in test [6]; more than 50 µg/mL in [7]; 33.9 µg/mL in test [8]; 14.5 µg/mL in test [11]. In test [4], this substance showed an IC50 (µg/mL), pseudovirus neutralization of 0.021 µg/mL. Also, the neutralization IC50 in test [5] worked out at 0.016 µg/mL. This substance also yielded an IC50, pseudovirus neutralization in [10] of more than 50 µg/mL.

Substance 5329_C19 (PGT-136) (antibody) yielded an EC50 in test [1] of 0.3 µg/mL. This substance returned a Primary Neutralization Index (B cell culture supernatant) in [12] of 5.6.
